Source: patent US20240382586A1 (TAKIS S R L, published 2024)
Numbering of substitutions follows the chain as printed. Where two headings read alike, the source gives them in different places.

Key:
[1] = molecular target: T1, SARS-CoV-2 spike receptor-binding domain, wild type (RBD-6×His) (SARS-CoV-2, UniProt P0DTC2 319-541)
[2] = molecular target: T1, SARS-CoV-2 spike receptor-binding …; remark: listed apart in the source
[3] = molecular target: T2, full-length spike protein (coated in ELISA) (SARS-CoV-2, UniProt P0DTC2 16-1213)
[4] = molecular target: T1, SARS-CoV-2 spike receptor-binding …; assay: ELISA, coated RBD-6His
[5] = molecular target: RBD fragment of the SARS-CoV-2 spike protein (RBD WT), recombinant (SARS-CoV-2, UniProt P0DTC2 319-541); assay: SPR Carterra LSA
[6] = molecular target: T1, SARS-CoV-2 spike receptor-binding …; remark: listed apart in the source
[7] = molecular target: T2, full-length spike protein (coated in …); remark: listed apart in the source
[8] = molecular target: RBD-6×His protein, RBD WT of the SARS-CoV-2 spike protein (SARS-CoV-2, UniProt P0DTC2 319-541); assay: ELISA on recombinant RBD
[9] = molecular target: T3, SARS-CoV-2 spike receptor-binding domain (RBD), recombinant (SARS-CoV-2, UniProt P0DTC2 319-541); assay: ELISA on RBD
[10] = molecular target: T3, SARS-CoV-2 spike receptor-binding …; assay: SPR, Carterra LSA
[11] = molecular target: T1, SARS-CoV-2 spike receptor-binding …; remark: listed apart in the source
[12] = molecular target: T1, SARS-CoV-2 spike receptor-binding …; remark: listed apart in the source
[13] = molecular target: T1, SARS-CoV-2 spike receptor-binding …; remark: listed apart in the source
[14] = molecular target: SARS-CoV-2 spike receptor-binding domain (RBD), recombinant (SARS-CoV-2, UniProt P0DTC2 319-541); assay: SPR, Carterra LSA; remark: listed apart in the source

B1: 9-2H7-D7 chimera (antibody, V domains shown)
VH: EVQLQQSGPELVKPGASVTISCKTSGYTFTEYTMYWVKQSHGKSLEWIGGINPYIGDTSYNQNFKGKATLTVDKSSSTAYMELRSLTSEDSAVYYCARDGYPDYSAMDFWGQGTSVTVSS
VL: DIVMSQSPSSLAVSVGEKVTMNCKSSQNLLYSSNQKNYLAWYQQKPGQSPKLLIYWASTRESGVPDRFTGSGSGTDFTLTISSVKAEDLAVYSCQQYYTYPWTFGGGTKLEIK
EC50 (read off the curve) [1]: ~0.05 µg/mL

B2: 9-2H7-D7 (mouse) (antibody, V domains shown)
VH: B1 VH
VL: B1 VL
Kd [2]: 51.5 pM
IC50 [3]: 0.0046 µg/mL
IC50 [4]: 0.0269 µg/mL

B3: 9-2H7 (antibody, V domains shown)
VH: B1 VH
VL: B1 VL
Kd [5]: 9.77 pM

B4: 9-7A4-C2 (mouse) (antibody, V domains shown)
VH: EVQLQQSGPELVKPGASVKISCKTSGYTFTEYTMYWVKQSHGKSLEWIGGINPNNGDSSYIQKFKGKATLTVDESSSTAYMELRSLTSEDSAVYYCARDGYPNSYAMDYWGQGTSVTVSS
VL: B1 VL with E17D, N22S, N28S, S33T, S82G, K85R, A86P, S93Y, T99S
Kd [6]: 643 pM
IC50 [7]: 0.0027 µg/mL
IC50 [4]: 0.0133 µg/mL

B5: humanised antibody 9-2H7-D7 (antibody, V domains shown)
VH: QVQLQQSGAEVKKPGASVKISCKTSGYTFTEYTMYWVKQSHGKSLEWMGGINPYIGDTSYNQNFKGRVTMTRDKSTSTAYMELSSLTSEDSAVYYCARDGYPDYSAMDFWGQGTSVTVSS
VL: B1 VL with S5T, K18R, M21I, Q35N, T69S, K85Q, L89V
notes: also called humanised 9-2H7-D7
binding result [8]: binds

B6: 9-7A4 (antibody, V domains shown)
VH: B4 VH
VL: B1 VL with E17D, N22S, N28S, S33T, S82G, K85R, A86P, S93Y, T99S
Kd [5]: 735 pM

B7: 2-5F8 (antibody, V domains shown)
VH: QVQLVQSGAEVKKPGASVKVSCKASGYTFTNYYMHWVRQAPGQGLEWMGVINPSGASTSYAQKFQGRVTMTRDTSTSTVYMELSSLRSEDTAVYYCASWGGNIPLYYYYGMDVWGQGTTVTVSS
VL: QSALTQPPSASGSPGQSVTISCTGTSSDVGGYNYVSWYQQHPGKAPKLMIYEVSKRPSGVPDRFSGSKAGNTASLTVSGLQAEDEADYYCTSYAGSNIWVFGGGTKLTVL
A(405 nm) [9]: 3.48
Kd [10]: 1500 pM

B8: humanised antibody 9-7A4-C2 (antibody, V domains shown)
VH: EVQLQQSGAEVKKPGASVKVSCKTSGYTFTEYTMYWVRQAPGQRLEWMGGINPNNGDSSYIQKFQGRVTITRDTSASTAYMELSSLRSEDTAVYYCARDGYPNSYAMDYWGQGTLVTVSS
VL: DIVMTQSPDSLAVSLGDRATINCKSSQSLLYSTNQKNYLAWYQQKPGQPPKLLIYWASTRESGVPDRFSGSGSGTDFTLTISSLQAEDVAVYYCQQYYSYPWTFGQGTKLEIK
notes: also called humanised 9-7A4-C2
binding result [8]: binds

B9: 2-5D9 (antibody, V domains shown)
VH: QVQLQESGPGLVKPSETLSLTCTVSGGSISSYYWSWIRQPPGKGLEWIGYIYYTGSTNYNPSLKSRVTISVDTSKNQFSLKLRSVTAADTAVYYCAGTYDSNLLDPWGQGTLVTVSS
VL: DIQMTQSPSSLSASVGDRVTITCRASQGISNSLAWYQQKPGKAPKLLLYDVFRFESGVPSRFSGSGSGTDYTLTISSLQPDDFATYYCQQYYSTPYTFGQGTKVEIK
A(405 nm) [9]: 3.49
Kd [10]: 544 pM

B10: 2-5C4 (antibody, V domains shown)
VH: EVQLVESGGGLIQPGGSLRLSCAASGLTVSSNYMNWVRQAPGKGLEWVSVIYAGGSTFYADSVKGRFTISRDNSKNTLYLQMNSLRAEDTAFYYCARESYGMDVWGQGTTVTVSS
VL: EIVLTQSPATLSLSPGERATLSCRASQSISSSYLAWYQQKPGQAPRLLIYGASSRATGIPDRFSGSGSGTDFTLTISRLEPEDFAVYYCQQYGSLYTFGQGTKVEIK
A(405 nm) [9]: 2.26
Kd [10]: 26 pM

B11: humanised 9-8F2-B11 (VH3VL3) (antibody, V domains shown)
VH: QVQLVQSGAEVKKPGASVKVSCKASGFNIKETYVHWVRQAPGQGLEWMGRIDPAIGDSEYAQKFQGRVTMTRDTSISTAYMELSRLRSDDTAVYYCARTWGPFFDFWGQGTLVTVSS
VL: DIVMTQTPLSLSVTPGQPASISCKSSQSLLHSHGNTFLHWYLQKPGQSPQVLIYKVSSRFSGVPDRFSGSGSGTDFTLKISRVEAEDVGVYYCSQSTHVPYTFGQGTKLEIK
notes: also called 9-8F2-B11 humanised
EC50 (read off the curve) [11]: ~0.01 µg/mL
Kd [12]: 2260 pM

B12: VH1/VL1 (antibody, V domains shown)
VH: EVQLQQSGAELVKPGASVKLSCTASGFNIKETYVHWVKQRPEQGLEWIGRIDPAIGDSEYDPKFQGKATVTADTSSNTAYLQLSRLTSEDTAVYYCARTWGPFFDFWGQGTTLTVSS
VL: DVVMTQTPLSLPVSLGDQASISCRSSQSLVHSHGNTFLHWYLQKPGQSPKVLIYKVSSRFSGVPDRFSGSGAGTDFTLKISRVEAEDLGVYFCSQSTHVPYTFGGGTKLEIK
notes: also called chimeric antibody 9-8F2-B11, combination VH1/VL1
EC50 (read off the curve) [13]: ~0.1 µg/mL

B13: 9-8F2-B11 (mouse) (antibody, V domains shown)
VH: B12 VH
VL: B12 VL
Kd [6]: 913 pM
IC50 [7]: 0.0037 µg/mL
IC50 [4]: 0.0137 µg/mL

B14: 2-4G1 (antibody, V domains shown)
VH: EVQLVQSGAEVKRPGASVKVSCKASGYTFTSYGLSWVRQAPGQGLEWMGWINTYNGHTNYAQKVQGRVTLTTDTSTSTAYMELRSLRSDDTAVYYCARVESVYYGSGTCDPWGQGTLVTVSS
VL: DIQMTQSPSSLSASVGDRVTITCRASQSISSYLNWYQQKPGKAPKLLIYIASSLQSGVPSRFSGSGSGTDFTLTISSLQPEDFATYYCHQSYSSPHTFGQGTKLEIK
A(405 nm) [9]: 2.08
Kd [10]: 14400 pM

B15: 3-12B12 (antibody, V domains shown)
VH: EVQLQQSGAELVRPGALVKLSCKASGFNIKDYYMHWVKQRPEQGLEWIGWIDPENGNSIYDPKFQGKASITADTSFNTVNLHLSSLTSEDTAVYYCAPYYYDSTYVGTMDYWGQGTSVTVSS
VL: QIVLTQSPAIMSASPGEKVTMTCSASSSVGYMYWYQQKPGSSPRLLIYDTSNLASGVPVRFGGSGSGTSYSLTISRMEAEDAATYYCQQWSSYPPRTFGGGTKLEIK
Kd [14]: 16.5 pM
